The target of assay [1] is T1, recombinant his-tag human LAG3-ECD protein (human, UniProt P18627 23-450).
T1 construct: extracellular domain; not shown: his tag
T1 sequence (looked up): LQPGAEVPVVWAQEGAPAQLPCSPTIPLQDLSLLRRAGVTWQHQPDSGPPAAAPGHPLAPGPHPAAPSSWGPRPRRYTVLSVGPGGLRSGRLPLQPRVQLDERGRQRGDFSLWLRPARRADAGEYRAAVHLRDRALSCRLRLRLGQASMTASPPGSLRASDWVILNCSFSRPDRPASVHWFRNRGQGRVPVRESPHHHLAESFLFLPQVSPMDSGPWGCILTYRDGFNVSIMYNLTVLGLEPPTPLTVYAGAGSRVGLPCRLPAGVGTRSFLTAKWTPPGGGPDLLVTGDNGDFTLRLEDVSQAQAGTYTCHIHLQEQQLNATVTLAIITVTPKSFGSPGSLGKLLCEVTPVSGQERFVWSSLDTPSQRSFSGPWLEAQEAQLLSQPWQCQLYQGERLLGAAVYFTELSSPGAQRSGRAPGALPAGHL
Put plainly: SPR Biacore T200, antibody captured by anti-human Fc, LAG3-ECD-his injected. On the procedure:
The binding of the S20, S24, S27, S31, S87, S119, S120, S128, S136, S161 and T99 antibodies to recombinant his-tag human LAG3-ECD protein was examined by Biacore T200 using a capture method. Anti-LAG3 antibodies were captured using anti-human Fc antibody. The anti-human Fc antibody was coated on chip. Serial concentrations of his-tag human LAG3-ECD protein (0-4 nM) were injected over capture antibodies at the flow rate of 30 μl/min. The dissociation phase was 900 s or 550 s. The Biacore results for the anti-LAG3 antibodies have shown that these anti-LAG3 antibodies are high affinity binder to human LAG3.
(Surface plasmon resonance follows binding to a sensor surface in real time, without labels.)

The target in assay [2] is T2, recombinant human LAG-3-ECD-human IgG1 fusion protein (human, UniProt P18627 23-450, biotin-labeled in the MHC class II blocking assays).
T2 construct: extracellular domain; also called LAG-3-huFc; LAG-3-ECD-huFc; not shown: human IgG1 Fc
T2 sequence (looked up): T1 sequence (looked up)
Kind of assay: ELISA on coated human LAG3 ECD-Fc; EC50 table has no unit, x axis Ab(nM). On the procedure:
(§1) To evaluate the capability of the anti-LAG-3 antibodies to bind to human, rat, and mouse LAG3 the antibodies identified in Example 2.1 were evaluated for their binding property through ELISA. The human, rat and mouse LAG3 ECD-Fc protein were coated to ELISA plate at 1 μg/ml with 100 μl/well. Antibodies from Example 1 were serially diluted with ELISA diluent buffer. […] The resulting plates were washed and then labeled with anti-human IgG(Fab)-HRP antibody. The S31 can only bind to human LAG3. The S27 and T99 can bind to human LAG3 and rat/mouse LAG3 with lower potency. The S119 antibody can bind to human, rat and mouse LAG3 at high potency (FIGS. 22A-22D).
A general note: In an ELISA, binding on a coated surface is turned into a signal by an enzyme label.

In assay [3] the target is T2, recombinant human LAG-3-ECD-human IgG1 …. Kind of assay: flow cytometry; blocking of biotin-LAG-3-ECD-huFc binding to MHC class II on Raji cells. As for the experimental part:
To evaluate the ability of anti-LAG-3 antibodies to block the binding of sLAG-3 to MHC class II receptor, an in vitro binding assay was designed using biotin-labeled LAG-3-ECD-huFc fusion proteins and Raji cells expressing MHC class II receptor. Antibodies from Example 1 were serially diluted from 20 μg/mL with FACS buffer and pre-incubated with 6 μg/mL of biotin-LAG-3-ECD-huFcc for 30 min at room temperature. The antibody mixture was then added to FcR blocked Raji cells and incubated for 30 min on ice. Cells were then washed with FACS buffer and subsequently stained with streptavidin PE for 30 min on ice and subsequently washed once with FACS buffer. Labeled cells were evaluated for fluorescence intensity by flow cytometry in a BD FACSCalibur™.
In general terms: In flow cytometry, cells or beads pass a laser one at a time.

The next assay concerns the target T3, rat LAG3 ECD-Fc protein (rat, UniProt Q5BK54 24-442).
T3 construct: extracellular domain; not shown: Fc part
T3 sequence (looked up): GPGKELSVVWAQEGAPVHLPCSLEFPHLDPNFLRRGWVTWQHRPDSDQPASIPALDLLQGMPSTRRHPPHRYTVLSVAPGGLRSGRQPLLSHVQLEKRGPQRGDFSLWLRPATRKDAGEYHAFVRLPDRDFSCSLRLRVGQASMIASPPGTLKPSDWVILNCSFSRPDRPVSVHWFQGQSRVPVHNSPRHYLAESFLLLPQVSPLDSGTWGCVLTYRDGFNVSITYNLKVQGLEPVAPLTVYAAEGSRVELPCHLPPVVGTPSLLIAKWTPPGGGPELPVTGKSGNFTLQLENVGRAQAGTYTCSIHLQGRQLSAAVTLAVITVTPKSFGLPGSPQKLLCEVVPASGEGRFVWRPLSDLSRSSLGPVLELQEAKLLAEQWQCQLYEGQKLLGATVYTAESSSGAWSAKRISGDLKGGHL
Put plainly: ELISA on coated rat LAG3 ECD-Fc; EC50 table has no unit, x axis Ab(nM); curve without upper plateau. As for the experimental part: as §1

Assay [4] deals with T4, mouse LAG3 ECD-Fc protein (mouse, UniProt Q61790 24-442).
T4 construct: extracellular domain; not shown: Fc part
T4 sequence (looked up): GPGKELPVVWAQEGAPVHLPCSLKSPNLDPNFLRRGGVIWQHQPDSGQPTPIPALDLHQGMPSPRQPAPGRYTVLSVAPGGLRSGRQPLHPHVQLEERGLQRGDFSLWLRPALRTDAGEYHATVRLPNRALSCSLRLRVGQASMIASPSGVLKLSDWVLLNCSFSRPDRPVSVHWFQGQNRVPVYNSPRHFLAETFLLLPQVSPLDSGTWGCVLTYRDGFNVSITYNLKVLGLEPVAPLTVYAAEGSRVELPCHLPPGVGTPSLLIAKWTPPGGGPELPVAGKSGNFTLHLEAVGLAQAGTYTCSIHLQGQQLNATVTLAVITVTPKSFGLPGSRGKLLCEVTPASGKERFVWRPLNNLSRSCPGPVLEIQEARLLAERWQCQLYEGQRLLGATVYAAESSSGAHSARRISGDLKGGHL
Kind of assay: ELISA on coated mouse LAG3 ECD-Fc; EC50 table has no unit, x axis Ab(nM); curve without upper plateau. As for the experimental part: as §1

In assay [5] the target is T5, human PD-L1 (construct not stated) (human, UniProt Q9NZQ7 19-239, limits assumed).
T5 construct: also called B7-H1 (PD-L1); PD-L1 protein
Put plainly: SPR Biacore, affinity ranking.

The target of assay [6] is T6, human PD-L1 expressed on mammalian cells (human, UniProt Q9NZQ7 19-290).
T6 construct: whole, on cells; also called PDL1-CHOK1 cells; PDL1-Raji cells
Kind of assay: cell-based binding on Raji-PDL1 cells (FACS by paragraph 328; the y axis of the sheet is labelled IL2 (ng/ml)); EC50 table has no unit, x axis Concentration (nM). On the procedure: To evaluate the antigen binding property, the antibodies were analyzed for its binding to mammalian expressed PD-L1 by FACS. Briefly, PDL1-Raji cells were firstly incubated with 5-fold serious diluted humanized antibodies starting at 2 µg/ml at RT for 1 hour. After wash by FACS buffer (PBS with 2% FBS), the Alexa 488-anti-human IgG antibody was added to each well and incubated at RT for 1 hour. The MFI of Alexa 488 was evaluated by FACSAriaIII.

For the next assay, the target named is T7, Bio-LAG3 (human, UniProt P18627 23-450, limits assumed, biotinylated (sites not given)).
T7 construct: also called human LAG3 protein
T7 sequence (looked up): T1 sequence (looked up)
Put plainly: ELISA, Bio-LAG3 held on streptavidin-coated plate. On the procedure:
The streptavidin was coated to an ELISA plate at 2 μg/ml with 100 μl/well. 100 μl of Bio-LAG3 at 1.0 μg/ml was subsequently incubated with streptavidin at RT for 1 hr. B3807, along with a positive control 25F7 and a negative control IgG, were serially diluted with ELISA diluent buffer. To assess binding, the antibodies at various concentrations were added to LAG3 protein-coated plate for 1.5 hr RT. The resulting plates were washed and then labeled with anti-human IgG(Fab)-HRP antibody.

Assay [7] has as its target T8, human LAG3 on cells (human, UniProt P18627 23-525).
T8 construct: whole, on cells; also called Jurkat-LAG3
T8 sequence (looked up): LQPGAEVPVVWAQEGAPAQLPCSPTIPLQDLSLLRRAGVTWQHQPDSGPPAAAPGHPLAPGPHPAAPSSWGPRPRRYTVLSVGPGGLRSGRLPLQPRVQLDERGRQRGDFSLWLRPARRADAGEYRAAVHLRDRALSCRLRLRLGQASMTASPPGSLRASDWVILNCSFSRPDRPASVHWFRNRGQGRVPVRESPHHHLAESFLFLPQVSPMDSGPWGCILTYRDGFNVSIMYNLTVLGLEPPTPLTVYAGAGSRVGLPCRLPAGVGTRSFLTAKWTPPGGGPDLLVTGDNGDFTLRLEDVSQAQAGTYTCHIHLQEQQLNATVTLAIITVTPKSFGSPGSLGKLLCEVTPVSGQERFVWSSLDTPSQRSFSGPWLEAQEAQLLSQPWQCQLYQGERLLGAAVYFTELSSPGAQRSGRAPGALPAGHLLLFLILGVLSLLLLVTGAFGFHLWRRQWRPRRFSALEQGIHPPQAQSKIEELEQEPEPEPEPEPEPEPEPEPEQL
Kind of assay: flow cytometry (MFI) on activated human PBMC (CD4+ cells), lower panel. On the procedure:
(§2) To further confirm that B3807 could bind to cell-derived human LAG3, both inducible human LAG3 expressed Jurkat cells and activated PBMCs were used to test the binding capability of B3807. In brief, Jurkat cells were resuspended in FACS buffer. B3807, 25F7 and isotype control were 3-fold serially diluted in FACS buffer with a dose ranging from 20 nM to 9 pM. The serially diluted antibodies were added to the cell suspension and incubated for 30 minutes on ice. Then after removal of unbound antibodies, cells were stained with anti-human IgG conjugated with Alexa Fluor 633 (Thermo, A21091). Fluorescence measurement was acquired on FACSCelesta flow cytometer and analyzed in Flowjo to determine the mean fluorescence intensities (MFI). To test the antibodies' ability of binding to native human LAG3, PBMCs from health donor were stimulated with anti-CD3 (BD, 555336) and anti-CD28 (BD, 555725) both at a concentration of 1 μg/ml. Following 3 days' stimulation, cells were harvested and incubated with anti-LAG3 antibodies for 30 mins on ice. The cells were stained with anti-human CD4 and anti-human IgG. Analysis of antibodies binding to CD4+ cells were carried out on FACSCelesta flow cytometry.

For assay [8], the target named is T8, human LAG3 on cells. Put plainly: flow cytometry (MFI) on human LAG3-expressing Jurkat cells, upper panel. On the procedure:
as §2

These results are taken from patent US20220363763A1 (ABL BIO, published 2022).

T5 sequence (Q9NZQ7 19-239 limits assumed): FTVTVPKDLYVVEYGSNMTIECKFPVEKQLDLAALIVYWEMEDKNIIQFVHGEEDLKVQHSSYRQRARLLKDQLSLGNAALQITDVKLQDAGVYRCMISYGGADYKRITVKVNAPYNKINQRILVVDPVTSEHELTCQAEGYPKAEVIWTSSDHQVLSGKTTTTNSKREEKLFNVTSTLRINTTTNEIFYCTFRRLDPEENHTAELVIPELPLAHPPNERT
T6 sequence (Q9NZQ7 19-290): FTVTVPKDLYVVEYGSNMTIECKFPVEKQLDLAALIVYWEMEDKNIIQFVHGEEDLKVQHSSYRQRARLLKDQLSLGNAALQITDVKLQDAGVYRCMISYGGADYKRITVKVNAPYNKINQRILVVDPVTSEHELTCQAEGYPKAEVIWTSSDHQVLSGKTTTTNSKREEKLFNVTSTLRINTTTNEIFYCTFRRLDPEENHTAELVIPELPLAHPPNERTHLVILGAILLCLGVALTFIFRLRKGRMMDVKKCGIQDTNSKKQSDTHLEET

B1: NLAG3-HDB169-S27 (antibody, human IgG1, V domains shown)
VH: QVQLVQSGAEVKKPGSSVKVSCKASGGTFSSYAISWVRQAPGQGLEWMGGIIPIFGTANYAQKFQGRVTITADESTSTAYMELSSLRSEDTAVYYCTTAAPGSYYLVFHYWGQGTLVTVSS
VL: DIQLTQSPSSLSASVGDRVTITCRASQTISSHLNWYQQKPGKAPKVLIYAASSLQSGVPSRFSGSGSGTEFTLTISSLQPDDFATYYCQQGNSFPFTFGPGTKVEIKR
notes: Short label tied by its unique suffix
Regarding B1, in assay [1], the Kd (commonly the equilibrium constant for the complex coming apart) was 0.0156 nM; the koff (as a rule, a measure of how fast the partners let go of each other) was determined as 0.00011 s⁻¹; the kon (as a rule, the rate constant with which the complex forms) worked out at 7.04e+06 M⁻¹ s⁻¹. For the same molecule, the EC50 (as a rule, the concentration needed to bring the measured effect to its halfway point) in [2] was determined as 0.21 nM. The IC50 – broadly, the concentration at which inhibition is half-maximal – in [3] came to 29.8 nM. Moreover, the EC50 with rat LAG3 ECD-Fc protein came to 13.9 nM. For the same molecule, the concentration for a half-maximal effect (EC50) in assay [4] was 12.6 nM.

B2: WT (parental clone of the Hu1210-41 engineering) (antibody, V domains shown)
VH: EVQLVESGGGLVQPGGSLRLSCAASGFTFSSYDMSWVRQAPGKSLEWVATISDAGGYIYYRDSVKGRFTISRDNAKNSLYLQMNSLRDEDTAVYICAREFGKRYALDYWGQGTTVTVSS
VL: DIQMTQSPSSLSASVGDRVTITCKASQDVTPAVAWYQQKPGKAPKLLIYSTSSRYTGVPSRFSGSGSGTDFTFTISSLQPEDIATYYCQQHYTTPLTFGQGTKLEIK
notes: Differs from Hu1210-41 by S60R (Kabat) in the heavy chain; also called parental antibody WT; parent antibody WT
Turning to B2, in assay [5], the affinity, expressed as Kd, was 2.63 nM; the koff came out at 0.000464 s⁻¹; the kon was determined as 177000 M⁻¹ s⁻¹. In [6], this molecule yielded a half-maximal effective concentration (EC50) of 5.04 nM.

B3: 25F7 (antibody, V domains shown)
VH: QVQLQQWGAGLLKPSETLSLTCAVYGGSFSDYYWNWIRQPPGKGLEWIGEINHNGNTNSNPSLKSRVTLSLDTSKNQFSLKLRSVTAADTAVYYCAFGYSDYEYNWFDPWGQGTLVTVSS
VL: EIVLTQSPATLSLSPGERATLSCRASQSISSYLAWYQQKPGQAPRLLIYDASNRATGIPARFSGSGSGTDFTLTISSLEPEDFAVYYCQQRSNWPLTFGQGTNLEIK
As for B3, the EC50 came to 0.22 nM with Bio-LAG3, 0.52 nM with human LAG3 on cells [7] and 0.57 nM in the assay with human LAG3 on cells [8].

B4: NLAG3-HDB169-T99 (antibody, human IgG1, V domains shown)
VH: QVQLVQSGAEVKKPGSSVKVSCKASGGTFSSYAISWVRQAPGQGLEWMGGIIPIFGTANYAQKFQGRVTITADESTSTAYMELSSLRSEDTAVYYCVRDLQDWNYGGAAYWGQGTLVTVSS
VL: VIWMTQSPSSLSASVGDSVTITCQASRDISNSLSWHQQKPGKAPKLLIYAASSLQSGVPSRFSGSGSGTDFTLTISSLQPEDFATYYCQQTKSFPLTFGGGTKVEIKR
notes: as for B1
On to B4, for which, in [1], the dissociation constant Kd is 0.0224 nM, the koff amounted to 0.00017 s⁻¹ and the kon was 7.62e+06 M⁻¹ s⁻¹. In [2], the EC50 was determined as 0.0638 nM. In addition, the IC50 in [3] came out at 23.7 nM. The EC50 in the assay with rat LAG3 ECD-Fc protein amounted to 20.9 nM. A half-maximal response in assay [4] (EC50) required 16.9 nM.
